Data published in the supplement of paper PMC10126150.
± gives the standard deviation of the averaged measurements.

System: ATP
Assay: switch fluorescence ratio, 500 uM ATP over buffer (Cy3 cluster intensity, sum of 5 cycles each) (fold (ratio)); higher = stronger signal-on switching upon ATP binding; sequences stand for … in TCGTCGGCAGCGTCAGATGTGTATAAGAGACAGTTTTTTTTTTTTTTTTTTTTTTTTT…TC
Details: aptamer strand: ATP DNA aptamer (quencher-CACCTGGGGGAGTATTGCGGAGGAAGG + anchor), 100 nM annealed; ATP concentration: 500 uM
Procedure, shortened: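 Clusters carrying Cy3-labelled switching strands on a modified Illumina MiSeq flow-cell were annealed to 100 nM quencher-labelled ATP aptamer and imaged in selection buffer. They were imaged again after 15 min with 500 uM ATP at 22 °C, over five buffer/ATP cycles with NaOH stripping and re-annealing in between. For each cluster, the fluorescence ratio is the summed Cy3 intensity of the target cycles divided by that of the buffer cycles, averaged per switch-domain sequence. Clusters outside 100-1000 RFU were left out.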
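Also: ATP exposure 15 min at 22 °C before imaging.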

Work on TTGTAAATGA yielded a switch fluorescence ratio of 1.02 ± 0.015.

GGGTCAACGC showed a switch fluorescence ratio of 0.9974 ± 0.0036.

TTTTGTAAGG showed a switch fluorescence ratio of 1.011 ± 0.0043.

In the case of GATGGGGATG, the switch fluorescence ratio is reported as 0.9677 ± 0.0045.

Sequence GCGAGTGTGA has a switch fluorescence ratio of 1 ± 0.036.

ATCCTAATGG was tested, and the switch fluorescence ratio was 0.983 ± 0.012.

With CTAGAAGTAT the switch fluorescence ratio was 1.024 ± 0.0033.

With CGAACGAAAA the switch fluorescence ratio was 0.992 ± 0.04.

GGTTGTGAGT gave a switch fluorescence ratio of 0.993 ± 0.02.

TATACATGCG showed a switch fluorescence ratio of 1.04 ± 0.025.

For GAGGTGAGG, the switch fluorescence ratio was 0.989 ± 0.011.

TTTTGTGGAA gave a switch fluorescence ratio of 0.998 ± 0.027.

For AGATTCGGGA, the switch fluorescence ratio was 0.967 ± 0.038.

TTAGGCGGGT was tested, and the switch fluorescence ratio was 1.01 ± 0.064.

In the case of GGGTGTAGTC, the switch fluorescence ratio is reported as 1.02 ± 0.043.

Sequence GGACGGGTTA has a switch fluorescence ratio of 1 ± 0.016.

For GAGGGGCCAG, the switch fluorescence ratio was 0.988 ± 0.027.

Sequence TTTTCAAGTT has a switch fluorescence ratio of 1.21 ± 0.38.

With TTTTCGAATT the switch fluorescence ratio was 0.991 ± 0.015.

AAGCTTGAAG showed a switch fluorescence ratio of 1.01 ± 0.013.

In the case of GGGGTAATAT, the switch fluorescence ratio is reported as 1.06 ± 0.053.

For AGGCTAACCG, the switch fluorescence ratio was 0.985 ± 0.019.

Sequence CTTGGGGCGG has a switch fluorescence ratio of 0.962 ± 0.017.

Work on CAATCTGCGC yielded a switch fluorescence ratio of 1.07 ± 0.043.

AATTACCATC showed a switch fluorescence ratio of 1.01 ± 0.017.

With TAAGCTTACA the switch fluorescence ratio was 1.04 ± 0.032.

In the case of TAATGGAGGG, the switch fluorescence ratio is reported as 0.965 ± 0.047.

Sequence TGTTGGTTTT has a switch fluorescence ratio of 1.02 ± 0.027.

For GATTGTAAAG, the switch fluorescence ratio was 1.021 ± 0.01.

GTGGGGAGCG showed a switch fluorescence ratio of 0.994 ± 0.029.

GCAAAAAGGT gave a switch fluorescence ratio of 0.996 ± 0.029.

For ATGTCATAAA, the switch fluorescence ratio was 1.0269 ± 0.0006.

AGCGAATGGT showed a switch fluorescence ratio of 0.951 ± 0.012.

In the case of TTGCTACTGT, the switch fluorescence ratio is reported as 0.983 ± 0.018.

Work on TAGACCATGT yielded a switch fluorescence ratio of 1.02 ± 0.034.

AGGAAGCGGT gave a switch fluorescence ratio of 0.958 ± 0.051.

Sequence TGTGTTAGAG has a switch fluorescence ratio of 1.01 ± 0.019.

Sequence ACGGTTGGTG has a switch fluorescence ratio of 1.01 ± 0.027.

With ATGGGGTCTG the switch fluorescence ratio was 1.05 ± 0.095.

In the case of CGGCAGTGTG, the switch fluorescence ratio is reported as 1.01 ± 0.048.

For CCATTAGTAT, the switch fluorescence ratio was 1.057 ± 0.0076.

In the case of GCTGGTTGA, the switch fluorescence ratio is reported as 1.01 ± 0.014.

Work on TAATGGTTTT yielded a switch fluorescence ratio of 1.02 ± 0.025.

For GGGCATTGGT, the switch fluorescence ratio was 0.991 ± 0.049.

GCGAGGGAGG was tested, and the switch fluorescence ratio was 1.02 ± 0.052.

For GTAAGTTCTG, the switch fluorescence ratio was 1 ± 0.011.

With TAATGTGGTA the switch fluorescence ratio was 0.979 ± 0.056.

In the case of CAGTTGAGAA, the switch fluorescence ratio is reported as 1.02 ± 0.011.

GGGATCATAG gave a switch fluorescence ratio of 0.9961 ± 0.0072.

GGAGGGCACG gave a switch fluorescence ratio of 0.967 ± 0.053.

AGCACTTACA showed a switch fluorescence ratio of 1.35 ± 0.085.

CGTAGACTTG gave a switch fluorescence ratio of 0.9736 ± 0.005.

GGCGGTTTGA gave a switch fluorescence ratio of 0.969 ± 0.014.

For AGAGGGTGGG, the switch fluorescence ratio was 0.994 ± 0.04.

In the case of TGAGTGAAAT, the switch fluorescence ratio is reported as 1.1 ± 0.014.

TATCCACCGT gave a switch fluorescence ratio of 1.077 ± 0.0031.

CTGTCGTGTC gave a switch fluorescence ratio of 0.9934 ± 0.003.

With TCGCTCATGG the switch fluorescence ratio was 1.03 ± 0.015.

For AGTTTGAGTT, the switch fluorescence ratio was 1.02 ± 0.052.

Work on TTGGGGGAAA yielded a switch fluorescence ratio of 1 ± 0.02.

For GGGCTGTCAC, the switch fluorescence ratio was 0.997 ± 0.013.

For CCGAATACCA, the switch fluorescence ratio was 1.61 ± 0.13.

CGGTGGGGGG was tested, and the switch fluorescence ratio was 1.04 ± 0.03.

TGCTATATGG showed a switch fluorescence ratio of 0.994 ± 0.022.

Sequence CGTGGGGTTC has a switch fluorescence ratio of 0.983 ± 0.021.

ATTGAAGATT showed a switch fluorescence ratio of 0.989 ± 0.037.

With CGTTTACCTT the switch fluorescence ratio was 1.0086 ± 0.001.

In the case of AGTTTCCTTT, the switch fluorescence ratio is reported as 0.978 ± 0.032.

TAATGCAGGA showed a switch fluorescence ratio of 1.02 ± 0.015.

In the case of TCGTCTGTGG, the switch fluorescence ratio is reported as 0.974 ± 0.029.

With ATCAAAGCGC the switch fluorescence ratio was 1.03 ± 0.023.

For TAAGGGGTCC, the switch fluorescence ratio was 0.979 ± 0.013.

CAATATATCT gave a switch fluorescence ratio of 1.01 ± 0.019.

With TCATGAGAGT the switch fluorescence ratio was 0.998 ± 0.011.

Work on TTCTTTACGG yielded a switch fluorescence ratio of 0.986 ± 0.026.

Work on GAAGAAAACA yielded a switch fluorescence ratio of 0.955 ± 0.089.

Work on AGGGGCTTTG yielded a switch fluorescence ratio of 1.03 ± 0.032.

Sequence TTACACCTTT has a switch fluorescence ratio of 1.02 ± 0.0085.

TTTGGTGGTA gave a switch fluorescence ratio of 0.984 ± 0.03.

TTAGGGGAAA was tested, and the switch fluorescence ratio was 1.03 ± 0.066.

Work on GGAGTTGTTA yielded a switch fluorescence ratio of 0.985 ± 0.013.

With TTTTGCTATT the switch fluorescence ratio was 1.03 ± 0.013.

CACACGGTTC was tested, and the switch fluorescence ratio was 1.02 ± 0.028.

For GTGTTAGGGG, the switch fluorescence ratio was 1.02 ± 0.069.

For CAATATCCGA, the switch fluorescence ratio was 1 ± 0.026.

In the case of GGGGCTACTA, the switch fluorescence ratio is reported as 1.01 ± 0.014.

Work on TGGTTATGTT yielded a switch fluorescence ratio of 1.02 ± 0.023.

Work on AGAATTGGGG yielded a switch fluorescence ratio of 0.982 ± 0.027.

Sequence TTTTTTAAAG has a switch fluorescence ratio of 0.99843 ± 0.00078.

AAGTGACCTT showed a switch fluorescence ratio of 1.135 ± 0.0039.

Work on AGGTTGTGCG yielded a switch fluorescence ratio of 1 ± 0.042.

CGATTAGGTG gave a switch fluorescence ratio of 1.193 ± 0.0052.

Sequence CGCCGAAGGG has a switch fluorescence ratio of 0.98523 ± 0.00014.

With ACTTTGAATA the switch fluorescence ratio was 0.988 ± 0.013.

In the case of ATTGGAGTGG, the switch fluorescence ratio is reported as 0.994 ± 0.032.

AATGGGGTAC was tested, and the switch fluorescence ratio was 1.009 ± 0.0087.

Work on ATCGGACGCT yielded a switch fluorescence ratio of 1.06 ± 0.023.

ACGGTATTG was tested, and the switch fluorescence ratio was 1.19 ± 0.037.

ATCCGGTTAC showed a switch fluorescence ratio of 5.17 ± 0.68.

Work on GATGGGAGTG yielded a switch fluorescence ratio of 1 ± 0.029.

Work on GATATGGCAC yielded a switch fluorescence ratio of 1.05 ± 0.042.

TTAATCTTAA was tested, and the switch fluorescence ratio was 0.972 ± 0.018.

For TAGGGGGCCA, the switch fluorescence ratio was 1.014 ± 0.004.

Work on GGACAGAGGT yielded a switch fluorescence ratio of 1 ± 0.044.

Sequence GTATTATCTG has a switch fluorescence ratio of 0.9495 ± 0.0038.

For GCGAGAGTGT, the switch fluorescence ratio was 0.99552 ± 0.00015.

ATTGCTATTC showed a switch fluorescence ratio of 1.03 ± 0.014.

Work on AATTAGACAG yielded a switch fluorescence ratio of 0.9912 ± 0.0047.

ATACAAGTAT gave a switch fluorescence ratio of 0.995 ± 0.025.

Sequence AGGGTGGCGC has a switch fluorescence ratio of 1.02 ± 0.021.

Work on TTGTTAGTTA yielded a switch fluorescence ratio of 1.01 ± 0.015.

CAAATGTCGT was tested, and the switch fluorescence ratio was 1.008 ± 0.008.

In the case of GTTGTGTTTT, the switch fluorescence ratio is reported as 1.01 ± 0.026.

With AGTTTTAGAT the switch fluorescence ratio was 1 ± 0.044.

With ATCTGTCCAG the switch fluorescence ratio was 1 ± 0.071.

TACTTGTTTC showed a switch fluorescence ratio of 1.01 ± 0.027.

Sequence GGTGTAAGAG has a switch fluorescence ratio of 0.987 ± 0.031.

GGGGTACGGC was tested, and the switch fluorescence ratio was 1.03 ± 0.041.

Sequence AAAAACTCTG has a switch fluorescence ratio of 1.01 ± 0.079.

With CCACGGGATT the switch fluorescence ratio was 1.08 ± 0.035.

In the case of CGGTAGATCG, the switch fluorescence ratio is reported as 1 ± 0.073.

TGTTATAGG was tested, and the switch fluorescence ratio was 1.001 ± 0.0098.

For AATGGGGGAC, the switch fluorescence ratio was 1.001 ± 0.0025.

TAATTTGCAG was tested, and the switch fluorescence ratio was 0.9812 ± 0.0076.

Sequence GCGTTCAGGC has a switch fluorescence ratio of 0.994 ± 0.063.

AGAGAGCCGT gave a switch fluorescence ratio of 1.06 ± 0.031.

CGGAAACAAA gave a switch fluorescence ratio of 1.01 ± 0.075.

CAGGTAGATG showed a switch fluorescence ratio of 0.9959 ± 0.0086.

TGTTTTTCTT was tested, and the switch fluorescence ratio was 1.01 ± 0.033.

Work on GAGTTAGTTG yielded a switch fluorescence ratio of 0.987 ± 0.093.

Work on GGATTGGTGG yielded a switch fluorescence ratio of 1.01 ± 0.024.

Sequence AGTTTGTCCC has a switch fluorescence ratio of 1.02 ± 0.0057.

CGATGTTGGG was tested, and the switch fluorescence ratio was 0.99 ± 0.018.

With TAAATTAGGG the switch fluorescence ratio was 0.992 ± 0.033.

AAACAGGGAT gave a switch fluorescence ratio of 1 ± 0.032.

For ACTAATATCG, the switch fluorescence ratio was 1.04 ± 0.036.

For GTGGAAAGGG, the switch fluorescence ratio was 1.01 ± 0.041.

CGATTTAGAG gave a switch fluorescence ratio of 0.988 ± 0.019.

Sequence TAGATATTTT has a switch fluorescence ratio of 0.986 ± 0.032.

Sequence GGGATTATCA has a switch fluorescence ratio of 1.016 ± 0.0094.

Work on GAGTTTGTGT yielded a switch fluorescence ratio of 0.996 ± 0.011.

AATACAGCAT gave a switch fluorescence ratio of 1.03 ± 0.014.

For ACGTTTTAA, the switch fluorescence ratio was 0.9999 ± 0.0084.

GGGGTAATAG showed a switch fluorescence ratio of 1.12 ± 0.14.

Sequence GCTCGTCGGC has a switch fluorescence ratio of 0.9987 ± 0.0018.

AGGAATTTTA showed a switch fluorescence ratio of 0.9554 ± 0.0062.

With TGCTACAGGT the switch fluorescence ratio was 1.04 ± 0.022.

TTTTGGGATA gave a switch fluorescence ratio of 1.03 ± 0.025.

In the case of GGAGGGAACT, the switch fluorescence ratio is reported as 1.2 ± 0.34.

Sequence CATCGGCGAT has a switch fluorescence ratio of 1.56 ± 0.038.

For GGCTGGCGGG, the switch fluorescence ratio was 0.99 ± 0.044.

Sequence ACTAATATTG has a switch fluorescence ratio of 1.032 ± 0.0054.

Work on TGTTTGAATG yielded a switch fluorescence ratio of 0.9585 ± 0.0029.

With ATTTGTTATC the switch fluorescence ratio was 0.98096 ± 8.4e-05.

In the case of TAAGCATAAG, the switch fluorescence ratio is reported as 1.01 ± 0.027.

For GGGTCCATTT, the switch fluorescence ratio was 1.01 ± 0.037.

TGGGTTAGTG gave a switch fluorescence ratio of 0.962 ± 0.017.
